Assay results published in paper PMC2173783.
Read-outs that look alike come from different tables or passages of the source.

Key:
Sec61 complex = test: radioligand binding
[1] = target: SRP receptor purified from canine pancreas (canine) (UniProt P06625); test: radioligand binding
[2] = target: bt-SR (bt-SRβ + SRα) (canine); test: IAsys optical biosensor
[3] = target: bt-SR (bt-SRβ + SRα) (canine); test: IAsys optical biosensor; remark: listed apart in the source
[4] = target: bt-SR (bt-SRβ + SRα) (canine); test: IAsys optical biosensor; remark: listed apart in the source

Row | Kd (Sec61 complex) | Kd [1] | stoichiometry N [1] | Kd [2] | Kd [3] | koff [2] | kon [2] | koff [4] | Substance
1 | 5.4 nM | 0.87 nM | 1 | 0.9 nM | 1.9 nM |  |  |  | 80S ribosomes (complex)
2 |  |  |  |  |  | 0.0069 s⁻¹ | 48000 M⁻¹ s⁻¹ | 0.0065 s⁻¹ | signal recognition particle (from UniProt P61010 1-504) (complex)
